{
  "source": "paper PMC10967246",
  "about": "(2023)",
  "assay_in_all_cases": "MST",
  "key": {"[1]": {"molecular_target": "T1, recombinant His-tagged PORA (Arabidopsis, UniProt Q42536 70-405)", "T1 chain": "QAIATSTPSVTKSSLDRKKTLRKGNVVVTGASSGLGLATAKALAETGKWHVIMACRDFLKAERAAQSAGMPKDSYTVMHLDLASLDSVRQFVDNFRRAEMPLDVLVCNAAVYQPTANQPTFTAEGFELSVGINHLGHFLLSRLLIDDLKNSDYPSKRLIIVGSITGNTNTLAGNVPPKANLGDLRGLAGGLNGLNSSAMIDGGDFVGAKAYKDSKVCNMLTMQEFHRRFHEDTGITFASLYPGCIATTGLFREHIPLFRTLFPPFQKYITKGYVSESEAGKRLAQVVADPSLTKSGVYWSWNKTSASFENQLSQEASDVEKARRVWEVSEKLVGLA"}, "[2]": {"molecular_target": "T2, linker domain followed by the TPR domain of FLU, link TPR_((FLU)) (Arabidopsis)", "T2 chain": "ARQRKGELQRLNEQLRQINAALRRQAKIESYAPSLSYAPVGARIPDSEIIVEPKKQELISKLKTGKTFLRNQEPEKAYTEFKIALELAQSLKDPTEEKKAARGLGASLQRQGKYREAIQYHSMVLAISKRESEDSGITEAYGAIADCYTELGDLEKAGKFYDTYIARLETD"}, "[3]": {"molecular_target": "T3, recombinant His-tagged GluTR-binding protein (GBP) (Arabidopsis, UniProt Q9LU39 43-317)", "T3 chain": "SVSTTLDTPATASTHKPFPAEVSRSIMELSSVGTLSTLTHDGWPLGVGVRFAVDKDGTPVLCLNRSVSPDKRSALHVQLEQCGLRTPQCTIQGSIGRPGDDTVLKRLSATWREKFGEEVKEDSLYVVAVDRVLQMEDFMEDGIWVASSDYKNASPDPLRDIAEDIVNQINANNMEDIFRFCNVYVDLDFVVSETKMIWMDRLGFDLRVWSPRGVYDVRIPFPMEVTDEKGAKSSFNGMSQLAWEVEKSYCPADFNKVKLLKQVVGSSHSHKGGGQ"}, "[4]": {"molecular_target": "T4, TPR domain of FLU, TPR_((FLU)), GST-tagged (Arabidopsis)", "T4 chain": "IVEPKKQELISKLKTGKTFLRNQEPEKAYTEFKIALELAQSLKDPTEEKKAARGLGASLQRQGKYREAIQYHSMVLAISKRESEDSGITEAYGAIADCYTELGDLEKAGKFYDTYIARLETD"}, "GST-tag": {"molecular_target": "GST-tag (Schistosoma japonicum)"}, "[5]": {"molecular_target": "T5, recombinant His-tagged full-length GluTR1 (Arabidopsis, UniProt P42804 62-543)", "T5 chain": "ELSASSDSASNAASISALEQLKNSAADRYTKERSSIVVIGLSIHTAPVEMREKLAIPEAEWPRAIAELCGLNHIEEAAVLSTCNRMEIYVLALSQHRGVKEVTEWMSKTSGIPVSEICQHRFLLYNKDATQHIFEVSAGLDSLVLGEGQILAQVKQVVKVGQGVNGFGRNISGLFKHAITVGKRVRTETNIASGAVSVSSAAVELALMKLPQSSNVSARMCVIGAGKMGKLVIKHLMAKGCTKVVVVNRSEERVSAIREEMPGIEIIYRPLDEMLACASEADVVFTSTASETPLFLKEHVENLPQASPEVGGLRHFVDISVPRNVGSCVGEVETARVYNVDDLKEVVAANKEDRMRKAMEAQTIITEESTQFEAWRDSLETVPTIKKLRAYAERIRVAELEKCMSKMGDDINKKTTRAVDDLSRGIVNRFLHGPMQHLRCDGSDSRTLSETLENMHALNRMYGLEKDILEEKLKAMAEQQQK"}, "[6]": {"molecular_target": "T6, recombinant His-tagged PORC (Arabidopsis, UniProt O48741 68-401)", "T6 chain": "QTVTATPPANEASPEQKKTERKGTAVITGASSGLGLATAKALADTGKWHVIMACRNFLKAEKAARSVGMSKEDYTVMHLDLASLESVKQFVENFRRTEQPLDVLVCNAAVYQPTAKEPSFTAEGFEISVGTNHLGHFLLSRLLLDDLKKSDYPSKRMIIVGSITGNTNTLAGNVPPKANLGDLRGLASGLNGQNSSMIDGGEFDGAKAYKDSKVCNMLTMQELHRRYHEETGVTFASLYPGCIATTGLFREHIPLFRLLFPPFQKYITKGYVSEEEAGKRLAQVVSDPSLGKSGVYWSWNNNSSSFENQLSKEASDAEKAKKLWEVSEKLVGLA"}, "ΔREDGluTR-6xHis": {"molecular_target": "T7, ΔREDGluTR-6xHis (Arabidopsis thaliana)", "T7 chain": "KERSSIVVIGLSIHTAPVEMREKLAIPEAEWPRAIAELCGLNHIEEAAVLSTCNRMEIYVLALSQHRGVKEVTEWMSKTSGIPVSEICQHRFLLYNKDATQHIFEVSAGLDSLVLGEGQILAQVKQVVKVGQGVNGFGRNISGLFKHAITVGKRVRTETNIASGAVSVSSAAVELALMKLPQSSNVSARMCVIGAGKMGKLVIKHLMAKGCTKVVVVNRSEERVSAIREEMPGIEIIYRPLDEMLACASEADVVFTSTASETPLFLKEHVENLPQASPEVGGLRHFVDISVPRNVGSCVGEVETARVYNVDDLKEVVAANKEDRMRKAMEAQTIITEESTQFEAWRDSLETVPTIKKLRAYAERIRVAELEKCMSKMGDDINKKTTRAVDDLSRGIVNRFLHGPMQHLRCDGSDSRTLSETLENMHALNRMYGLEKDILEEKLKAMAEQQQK"}, "[7]": {"molecular_target": "T8, recombinant His-tagged PORB (Arabidopsis, UniProt P21218 67-401)", "T8 chain": "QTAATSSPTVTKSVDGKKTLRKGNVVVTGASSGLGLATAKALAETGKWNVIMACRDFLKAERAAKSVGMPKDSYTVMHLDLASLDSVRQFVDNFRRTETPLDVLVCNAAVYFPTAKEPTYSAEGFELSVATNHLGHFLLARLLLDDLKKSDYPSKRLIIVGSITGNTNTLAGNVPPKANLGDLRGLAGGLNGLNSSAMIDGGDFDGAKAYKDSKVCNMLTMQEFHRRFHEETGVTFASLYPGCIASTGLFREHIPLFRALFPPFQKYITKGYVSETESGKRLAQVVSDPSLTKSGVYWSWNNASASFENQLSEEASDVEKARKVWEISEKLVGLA"}},
  "data": [
    {"binder": "recombinant 6×His-tagged TTP1, RED-NHS labelled (natural protein, labelled with the RED-NHS Protein Labeling Kit, degree of labeling approximately 1.0) MLMTLAATTSVSFNSKLLLFRIRCSDSNPKRGFGSKKEEKDPALQQRKSSSKQSVSVPRKAPGLNTQFEGKSGRSFDIDFDERLENIRRSALEQKKTEVVKEFGPIDYDAPVKSDQKTIGLGTKVGVGIAVVVFGLVFALGDFLPTGSDSPTKNTTVVKNQISEEEKATLQQRLKEFETTLNGTPQDQAALEGAAVTLTELGDYSRAAAFLEKLAKERPTDPDVFRLLGEVNYELNNYEGSIAAYKISEKVSKGIDLEVTRGLMNAYLAAKKPDEAVKFLLDTRERLNTKKTSTTDSVTDETNLDPIQVELLLGKAYSDWGHISDAIAVYDQLISAHPEDFRGYLAKGIILRENGSRGDAERMFIQARFFAPNKAKALVDRYSKL", "values": [
      {"measurement": "Kd", "setting": "[1]", "value": 1310, "unit": "nM"},
      {"measurement": "Kd", "setting": "[2]", "value": 1610, "unit": "nM"},
      {"measurement": "Kd", "setting": "[3]", "value": 266, "unit": "nM"},
      {"measurement": "Kd", "setting": "[4]", "value": 7900, "unit": "nM"},
      {"measurement": "Kd", "setting": "GST-tag", "value": "> 400000", "unit": "nM"},
      {"measurement": "Kd", "setting": "[5]", "value": 295, "unit": "nM"},
      {"measurement": "Kd", "setting": "[6]", "value": 112, "unit": "nM"},
      {"measurement": "Kd", "setting": "ΔREDGluTR-6xHis", "value": 3050, "unit": "nM"},
      {"measurement": "Kd", "setting": "[7]", "value": 476, "unit": "nM"}
    ]}
  ]
}
